The results in this text go back to the supplement of paper PMC5998384.

Data set [1] relates to HeLa Kyoto. Put plainly: solubility in G1/S (NP-40 vs SDS abundance) (log2 ratio); higher = more soluble. As to conditions: cell cycle stage: G1/S.
The subject of data set [2] is HeLa Kyoto. The experiment in a line: solubility change mitosis vs G1/S (difference of NP-40 vs SDS log2 ratios) (log2 ratio difference); higher = more soluble in mitosis.
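Throughout, for solubility change mitosis vs G1/S (difference of NP-40 vs SDS log2 ratios): synchronized HeLa Kyoto cells (double thymidine block for G1/S, nocodazole release for mitosis), protein amounts in NP-40 versus SDS lysates quantified by mass spectrometry, three biological replicates.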
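Throughout, for solubility in G1/S (NP-40 vs SDS abundance): HeLa Kyoto cells arrested at G1/S by double thymidine block, proteins quantified by TMT10plex mass spectrometry in mild NP-40 versus SDS extracts, three biological replicates.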

Take “MAADLNLEWISLPRSWTYGITRGGRVFFINEEAKSTTWLHPVTGEAVVTGHRRQSTDLPTGWEEAYTFEGARYYINHNERKVTCKHPVTGQPSQDNCIFVVNEQTVATMTSEEKKERPISMINEASNYNVTSDYAVHPMSPVGRTSRASKKVHNFGKRSNSIKRNPNAPVVRRGWLYKQDSTGMKLWKKRWFVLSDLCLFYYRDEKEEGILGSILLPSFQIALLTSEDHINRKYAFKAAHPNMRTYYFCTDTGKEMELWMKAMLDAALVQTEPVKRVDKITSENAPTKETNNIPNHRVLIKPEIQNNQKNKEMSKIEEKKALEAEKYGFQKDGQDRPLTKINSVKLNSLPSEYESGSACPAQTVHYRPINLSSSENKIVNVSLADLRGGNRPNTGPLYTEADRVIQRTNSMQQLEQWIKIQKGRGHEEETRGVISYQTLPRNMPSHRAQIMARYPEGYRTLPRNSKTRPESICSVTPSTHDKTLGPGAEEKRRSMRDDTMWQLYEWQQRQFYNKQSTLPRHSTLSSPKTMVNISDQTMHSIPTSPSHGSIAAYQGYSPQRTYRSEVSSPIQRGDVTIDRRHRAHHPKHVYVPDRRSVPAGLTLQSVSPQSLQGKTLSQDEGRGTLYKYRPEEVDIDAKLSRLCEQDKVVHALEEKLQQLHKEKYTLEQALLSASQEIEMHADNPAAIQTVVLQRDDLQNGLLSTCRELSRATAELERAWREYDKLEYDVTVTRNQMQEQLDHLGEVQTESAGIQRAQIQKELWRIQDVMEGLSKHKQQRGTTEIGMIGSKPFSTVKYKNEGPDYRLYKSEPELTTVAEVDESNGEEKSEPVSEIETSVVKGSHFPVGVVPPRAKSPTPESSTIASYVTLRKTKKMMDLRTERPRSAVEQLCLAESTRPRMTVEEQMERIRRHQQACLREKKKGLNVIGASDQSPLQSPSNLRDNPFRTTQTRRRDDKELDTAIRENDVKPDHETPATEIVQLKETEPQNVDFSKELKKTENISYEMLFEPEPNGVNSVEMMDKERNKDKMPEDVTFSPQDETQTANHKPEEHPEENTKNSVDEQEETVISYESTPEVSRGNQTMAVKSLSPSPESSASPVPSTQPQLTEGSHFMCV [PLEKHA5]”: in the data set with HeLa Kyoto [1], the “solubility in G1/S (log2)” value was -0.128. In addition, the “solubility change mitosis (log2)” value with HeLa Kyoto [2] was found to be 0.0805.
Take “MAAEALAAEAVASRLERQEEDIRWLWSEVERLRDEQLNAPYSCQAEGPCLTREVAQLRAENCDLRHRLCSLRLCLAEERSRQATLESAELEAAQEAGAQPPPSQSQDKDMKKKKMKESEADSEVKHQPIFIKERLKLFEILKKDHQLLLAIYGKKGDTSNIITVRVADGQTVQGEVWKTTPYQVAAEISQELAESTVIAKVNGELWDLDRPLEGDSSLELLTFDNEEAQAVYWHSSAHILGEAMELYYGGHLCYGPPIENGFYYDMFIEDRAVSSTELSALENICKAIIKEKQPFERLEVSKEILLEMFKYNKFKCRILNEKVNTATTTVYRCGPLIDLCKGPHVRHTGKIKTIKIFKNSSTYWEGNPEMETLQRIYGISFPDNKMMRDWEKFQEEAKNRDHRKIGKEQELFFFHDLSPGSCFFLPRGAFIYNTLTDFIREEYHKRDFTEVLSPNMYNSKLWEASGHWQHYSENMFTFEIEKDTFALKPMNCPGHCLMFAHRPRSWREMPIRFADFGVLHRNELSGTLSGLTRVRRFQQDDAHIFCTVEQIEEEIKGCLQFLQSVYSTFGFSFQLNLSTRPENFLGEIEMWNEAEKQLQNSLMDFGEPWKMNPGDGAFYGPKIDIKIKDAIGRYHQCATIQLDFQLPIRFNLTYVSKDGDDKKRPVIIHRAILGSVERMIAILSENYGGKWPFWLSPRQVMVIPVGPTCEKYALQVSSEFFEEGFMADVDLDHSCTLNKKIRNAQLAQYNFILVVGEKEKIDNAVNVRTRDNKIHGEILVTSAIDKLKNLRKTRTLNAEEAF [TARSL2]”: in the data set with HeLa Kyoto [1], the “solubility in G1/S (log2)” value is -0.498. Moreover, in the data set with HeLa Kyoto [2], the “solubility change mitosis (log2)” value worked out at 0.191.
In the same order, the values of “MAAELRMILYEDDSVQVQYVDGSTLQLSPCGSEFLFEKSPPVSAHPLEQPERIRQRTHFVISTYREQLQRALDFRNSSATCPFLSETIIPSERKKHIFIDITEVRWPSLDTDGTMIYMESGIVKITSLDGHAYLCLPRSQHEFTVHFLCKVSQKSDSSAVLSETNNKAPKDKLVEKTGKICIRGNLPGQRLKNKENEFHCQIMKSKETLKKMSCVNGTEGREELPSPGTKHTCVYTWVKQCWSVAACPEEWKYPLSLALHFHNKISNMSKIDAHITQSRFLTSDISEERGKVVSVLPRALSLSCPVPHLHRWNFCDSLLQRQSDEYSYPELVKMVWYKGVTYRLTHQNMNSIEIYSGDGSVFKSEGAYFGNYFTYYSIQEGSGKREEKTYSVNNLPPDRPGSPFTVGSLIKQATRILQHCVKMRLSLSHNYRICCWKMVPGINDSNILPLVLKESLIPSVGRFLAYSDDKVHAIFLDGITLTLNWNFSSPIEKRQVNQGLNLGWCKLTFPDGQEQLIQIEHPEPYERYVTTVTSWCRRLTQTSPREMPTHSSSSVLQENWSVASELEKIQKFNLLLENSGILNQISNKKNEQQSFDHYKPGSSETLLGEVNENRVSIALKKTSEILHDIDCLLSNSKK [C5ORF34]” are -0.136 and -0.0287.
As to “MAAGAGAGSAPRWLRALSEPLSAAQLRRLEEHRYSAAGVSLLEPPLQLYWTWLLQWIPLWMAPNSITLLGLAVNVVTTLVLISYCPTATEEAPYWTYLLCALGLFIYQSLDAIDGKQARRTNSCSPLGELFDHGCDSLSTVFMAVGASIAARLGTYPDWFFFCSFIGMFVFYCAHWQTYVSGMLRFGKVDVTEIQIALVIVFVLSAFGGATMWDYTIPILEIKLKILPVLGFLGGVIFSCSNYFHVILHGGVGKNGSTIAGTSVLSPGLHIGLIIILAIMIYKKSATDVFEKHPCLYILMFGCVFAKVSQKLVVAHMTKSELYLQDTVFLGPGLLFLDQYFNNFIDEYVVLWMAMVISSFDMVIYFSALCLQISRHLHLNIFKTACHQAPEQVQVLSSKSHQNNMD [CHPT1]”, the “solubility in G1/S (log2)” value in the data set with HeLa Kyoto [1] was -0.277. The “solubility change mitosis (log2)” value with HeLa Kyoto [2] was -0.173.
The matching figures for “MAAGGSGGRASCPPGVGVGPGTGGSPGPSANAAATPAPGNAAAAAAAAAAAAAAPGPTPPAPPGPGTDAQAAGAERAEEAAGPGAAALQREAAYNWQASKPTVQERFAFLFNNEVLCDVHFLVGKGLSSQRIPAHRFVLAVGSAVFDAMFNGGMATTSTEIELPDVEPAAFLALLKFLYSDEVQIGPETVMTTLYTAKKYAVPALEAHCVEFLKKNLRADNAFMLLTQARLFDEPQLASLCLENIDKNTADAITAEGFTDIDLDTLVAVLERDTLGIREVRLFNAVVRWSEAECQRQQLQVTPENRRKVLGKALGLIRFPLMTIEEFAAGPAQSGILVDREVVSLFLHFTVNPKPRVEFIDRPRCCLRGKECSINRFQQVESRWGYSGTSDRIRFSVNKRIFVVGFGLYGSIHGPTDYQVNIQIIHTDSNTVLGQNDTGFSCDGSASTFRVMFKEPVEVLPNVNYTACATLKGPDSHYGTKGLRKVTHESPTTGAKTCFTFCYAAGNNNGTSVEDGQIPEVIFYT [BTBD2]”: -0.317 and 0.0341.
The matching figures for “MAALGVLESDLPSAVTLLKNLQEQVMAVTAQVKSLTQKVQAGAYPTEKGLSFLEVKDQLLLMYLMDLTHLILDKASGGSLQGHDAVLRLVEIRTVLEKLRPLDQKLKYQIDKLIKTAVTGSLSENDPLRFKPHPSNMMSKLSSEDEEEDEAEDDQSEASGKKSVKGVSKKYVPPRLVPVHYDETEAEREKKRLERAKRRALSSSVIRELKEQYSDAPEEIRDARHPHVTRQSQEDQHRINYEESMMVRLSVSKREKGRRKRANVMSSQLHSLTHFSDISALTGGTVHLDEDQNPIKKRKKIPQKGRKKKGFRRRR [NGDN]”: -1.83 and 0.93.
The matching figures for “MAAPVRLGRKRPLPACPNPLFVRWLTEWRDEATRSRRRTRFVFQKALRSLRRYPLPLRSGKEAKILQHFGDGLCRMLDERLQRHRTSGGDHAPDSPSGENSPAPQGRLAEVQDSSMPVPAQPKAGGSGSYWPARHSGARVILLVLYREHLNPNGHHFLTKEELLQRCAQKSPRVAPGSARPWPALRSLLHRNLVLRTHQPARYSLTPEGLELAQKLAESEGLSLLNVGIGPKEPPGEETAVPGAASAELASEAGVQQQPLELRPGEYRVLLCVDIGETRGGGHRPELLRELQRLHVTHTVRKLHVGDFVWVAQETNPRDPANPGELVLDHIVERKRLDDLCSSIIDGRFREQKFRLKRCGLERRVYLVEEHGSVHNLSLPESTLLQAVTNTQVIDGFFVKRTADIKESAAYLALLTRGLQRLYQGHTLRSRPWGTPGNPESGAMTSPNPLCSLLTFSDFNAGAIKNKAQSVREVFARQLMQVRGVSGEKAAALVDRYSTPASLLAAYDACATPKEQETLLSTIKCGRLQRNLGPALSRTLSQLYCSYGPLT [MUS81]”: -0.347 and 0.243.
As for “MAAQIPESDQIKQFKEFLGTYNKLTETCFLDCVKDFTTREVKPEETTCSEHCLQKYLKMTQRISMRFQEYHIQQNEALAAKAGLLGQPR [TIMM9]”, the “solubility in G1/S (log2)” value with HeLa Kyoto [1] was -0.307. Also, the “solubility change mitosis (log2)” value in the data set on HeLa Kyoto [2] was found to be 0.239.
For “MAAVKASTSKATRPWYSHPVYARYWQHYHQAMAWMQSHHNAYRKAVESCFNLPWYLPSALLPQSSYDNEAAYPQSFYDHHVAWQDYPCSSSHFRRSGQHPRYSSRIQASTKEDQALSKEEEMETESDAEVECDLSNMEITEELRQYFAETERHREERRRQQQLDAERLDSYVNADHDLYCNTRRSVEAPTERPGERRQAEMKRLYGDSAAKIQAMEAAVQLSFDKHCDRKQPKYWPVIPLKF [GEMIN8]”, the “solubility in G1/S (log2)” value in the data set on HeLa Kyoto [1] turned out to be 0.511. Also, the “solubility change mitosis (log2)” value in the data set on HeLa Kyoto [2] turned out to be 0.219.
On to “MADFEELRNMVSSFRVSELQVLLGFAGRNKSGRKHDLLMRALHLLKSGCSPAVQIKIRELYRRRYPRTLEGLSDLSTIKSSVFSLDGGSSPVEPDLAVAGIHSLPSTSVTPHSPSSPVGSVLLQDTKPTFEMQQPSPPIPPVHPDVQLKNLPFYDVLDVLIKPTSLVQSSIQRFQEKFFIFALTPQQVREICISRDFLPGGRRDYTVQVQLRLCLAETSCPQEDNYPNSLCIKVNGKLFPLPGYAPPPKNGIEQKRPGRPLNITSLVRLSSAVPNQISISWASEIGKNYSMSVYLVRQLTSAMLLQRLKMKGIRNPDHSRALIKEKLTADPDSEIATTSLRVSLMCPLGKMRLTIPCRAVTCTHLQCFDAALYLQMNEKKPTWICPVCDKKAAYESLILDGLFMEILNDCSDVDEIKFQEDGSWCPMRPKKEAMKVSSQPCTKIESSSVLSKPCSVTVASEASKKKVDVIDLTIESSSDEEEDPPAKRKCIFMSETQSSPTKGVLMYQPSSVRVPSVTSVDPAAIPPSLTDYSVPFHHTPISSMSSDLPGLDFLSLIPVDPQYCPPMFLDSLTSPLTASSTSVTTTSSHESSTHVSSSSSRSETGVITSSGSNIPDIISLD [PIAS2]”, for which, in the data set with HeLa Kyoto [1], the “solubility in G1/S (log2)” value stood at 0.155. Besides, the “solubility change mitosis (log2)” value in the data set with HeLa Kyoto [2] was -0.0526.
